Test results from US20200261595A1.

Molecular target: insulin receptor of isolated rat adipocytes (rat) (UniProt P15127)
Test: cell-based or functional assay

insulin receptor of isolated rat adipocytes (rat), sequence (P15127 27-1383): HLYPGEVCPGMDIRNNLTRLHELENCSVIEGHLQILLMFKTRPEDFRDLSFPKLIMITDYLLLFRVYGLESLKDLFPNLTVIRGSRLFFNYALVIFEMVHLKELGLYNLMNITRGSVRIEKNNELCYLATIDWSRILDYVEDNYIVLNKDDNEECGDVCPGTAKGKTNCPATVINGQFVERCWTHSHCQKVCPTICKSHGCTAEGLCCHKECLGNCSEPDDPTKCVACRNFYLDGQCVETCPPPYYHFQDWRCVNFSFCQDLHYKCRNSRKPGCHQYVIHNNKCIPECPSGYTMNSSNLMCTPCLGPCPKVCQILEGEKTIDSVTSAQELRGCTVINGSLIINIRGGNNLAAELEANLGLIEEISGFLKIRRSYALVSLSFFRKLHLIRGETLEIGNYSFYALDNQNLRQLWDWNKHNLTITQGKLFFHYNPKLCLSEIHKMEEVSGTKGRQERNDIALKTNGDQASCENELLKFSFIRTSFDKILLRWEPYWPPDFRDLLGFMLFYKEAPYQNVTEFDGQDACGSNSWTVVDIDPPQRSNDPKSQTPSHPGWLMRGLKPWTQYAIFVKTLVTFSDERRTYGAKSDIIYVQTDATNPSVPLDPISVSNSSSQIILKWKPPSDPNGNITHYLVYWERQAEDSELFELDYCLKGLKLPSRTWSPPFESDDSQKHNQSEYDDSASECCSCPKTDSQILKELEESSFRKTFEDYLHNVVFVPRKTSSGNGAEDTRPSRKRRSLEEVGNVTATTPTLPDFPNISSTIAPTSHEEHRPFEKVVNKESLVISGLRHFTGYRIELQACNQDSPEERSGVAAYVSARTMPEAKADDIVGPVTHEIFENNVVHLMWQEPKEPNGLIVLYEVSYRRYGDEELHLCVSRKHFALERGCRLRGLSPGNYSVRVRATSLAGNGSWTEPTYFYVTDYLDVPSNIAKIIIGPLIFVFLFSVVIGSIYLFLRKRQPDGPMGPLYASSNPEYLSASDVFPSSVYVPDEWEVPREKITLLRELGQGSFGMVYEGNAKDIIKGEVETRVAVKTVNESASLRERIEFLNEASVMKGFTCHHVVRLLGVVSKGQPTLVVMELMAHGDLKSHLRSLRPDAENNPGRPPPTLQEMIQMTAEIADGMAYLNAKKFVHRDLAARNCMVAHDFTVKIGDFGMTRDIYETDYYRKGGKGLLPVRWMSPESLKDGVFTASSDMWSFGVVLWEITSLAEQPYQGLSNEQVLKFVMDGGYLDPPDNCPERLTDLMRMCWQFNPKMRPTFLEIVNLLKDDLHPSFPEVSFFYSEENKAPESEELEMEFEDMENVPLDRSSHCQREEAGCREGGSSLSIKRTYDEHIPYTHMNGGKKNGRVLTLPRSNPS

Substance | Lipogenesis in rat adipocytes [Potency (%)] Mean Value (% of human insulin)
(A14E, A21G, A22(GQEP)19, 98K^, A99P, B25H, B29R, desB30 human insulin)/(226A, 227G, 228P, 234A, 235K, des447 hIgG4-Fc(228-447)) 3,5-bis[(2-acetyl)amino]benzoyl conjugate (from UniProt P01861 109-325) | 5.44
A14E, B(-78K^), B(-77P), B(-1)(GQAP)19, B25H, B29R, desB30 human insulin/(227A, 234A, 235K, 297E, 315Q, 384Q, des447 hIgG4-Fc(228-447)) 4-[bis[2-[(2-acetyl)amino]ethyl]amino]-4-oxo-butanoyl conjugate (from UniProt P01861 108-325) | 0.87
